Data on five substances can be found in the supplement of paper PMC5998384.

Data set [1] has as its system HeLa Kyoto. Kind of data set: thermal stability score vs G1/S (z-score of summed log2 fold changes over temperatures); higher = more thermally stable than in G1/S.
For data set [2], the system named is HeLa Kyoto. The data set can be described thus: melting temperature (median over replicates), in situ; higher = more thermally stable.
The test system of data set [3] is HeLa Kyoto. Kind of data set: solubility change mitosis vs G1/S (difference of NP-40 vs SDS log2 ratios) (log2 ratio difference); higher = more soluble in mitosis.
Data set [4] relates to HeLa Kyoto. The data set can be described thus: solubility in G1/S (NP-40 vs SDS abundance) (log2 ratio); higher = more soluble. The conditions noted are these: cell cycle stage: G1/S.
[5] abbreviates: cell cycle stage: early G1 (4.5 h after nocodazole release).
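Throughout, for melting temperature (median over replicates), in situ: HeLa Kyoto cells synchronized by double thymidine or nocodazole block, proteins quantified by TMT10plex mass spectrometry, three independent biological replicates.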
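Throughout, for solubility change mitosis vs G1/S (difference of NP-40 vs SDS log2 ratios): synchronized HeLa Kyoto cells (double thymidine block for G1/S, nocodazole release for mitosis), protein amounts in NP-40 versus SDS lysates quantified by mass spectrometry, three biological replicates.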
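Throughout, for solubility in G1/S (NP-40 vs SDS abundance): HeLa Kyoto cells arrested at G1/S by double thymidine block, proteins quantified by TMT10plex mass spectrometry in mild NP-40 versus SDS extracts, three biological replicates.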
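Throughout, for thermal stability score vs G1/S (z-score of summed log2 fold changes over temperatures): synchronized HeLa Kyoto cells, proteins quantified by TMT10plex mass spectrometry, three biological replicates, mitosis taken 0.5 h after nocodazole release, G1/S directly after double thymidine block.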

Sequence of RPIA (chain, as listed by the source): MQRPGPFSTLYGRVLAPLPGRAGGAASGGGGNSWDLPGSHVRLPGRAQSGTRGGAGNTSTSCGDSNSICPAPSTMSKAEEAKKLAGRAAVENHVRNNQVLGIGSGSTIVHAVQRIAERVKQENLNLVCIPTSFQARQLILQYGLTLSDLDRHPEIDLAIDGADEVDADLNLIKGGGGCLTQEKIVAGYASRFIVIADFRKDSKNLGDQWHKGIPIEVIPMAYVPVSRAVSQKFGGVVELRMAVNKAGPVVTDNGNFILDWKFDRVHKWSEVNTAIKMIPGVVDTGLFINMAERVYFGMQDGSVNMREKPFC

Regarding APOB, the thermal stability score in the data set on HeLa Kyoto [1] (setting [5]) was -3.15; with HeLa Kyoto [1] (cell cycle stage: mitosis), -0.312. Further, the melting temperature with HeLa Kyoto [2] (cell cycle stage: G1/S) was found to be 57.6 °C; with HeLa Kyoto [2] (cell cycle stage: mitosis) it was 55.5 °C. Further, the “solubility change mitosis (log2)” value in the data set on HeLa Kyoto [3] stood at 0.0239. Moreover, the “solubility in G1/S (log2)” value in the data set with HeLa Kyoto [4] is -0.404.

With “MIFPVARYALRWLRRPEDRAFSRAAMEMALRGVRKVLCVAEKNDAAKGIADLLSNGRMRRREGLSKFNKIYEFDYHLYGQNVTMVMTSVSGHLLAHDFQMQFRKWQSCNPLVLFEAEIEKYCPENFVDIKKTLERETRQCQALVIWTDCDREGENIGFEIIHVCKAVKPNLQVLRARFSEITPHAVRTACENLTEPDQRVSDAVDVRQELDLRIGAAFTRFQTLRLQRIFPEVLAEQLISYGSCQFPTLGFVVERFKAIQAFVPEIFHRIKVTHDHKDGIVEFNWKRHRLFNHTACLVLYQLCVEDPMATVVEVRSKPKSKWRPQALDTVELEKLASRKLRINAKETMRIAEKLYTQGYISYPRTETNIFPRDLNLTVLVEQQTPDPRWGAFAQSILERGGPTPRNGNKSDQAHPPIHPTKYTNNLQGDEQRLYEFIVRHFLACCSQDAQGQETTVEIDIAQERFVAHGLMILARNYLDVYPYDHWSDKILPVYEQGSHFQPSTVEMVDGETSPPKLLTEADLIALMEKHGIGTDATHAEHIETIKARMYVGLTPDKRFLPGHLGMGLVEGYDSMGYEMSKPDLRAELEADLKLICDGKKDKFVVLRQQVQKYKQVFIEAVAKAKKLDEALAQYFGNGTELAQQEDIYPAMPEPIRKCPQCNKDMVLKTKKNGGFYLSCMGFPECRSAVWLPDSVLEASRDSSVCPVCQPHPVYRLKLKFKRGSLPPTMPLEFVCCIGGCDDTLREILDLRFSGGPPRASQPSGRLQANQSLNRMDNSQHPQPADSRQTGSSKALAQTLPPPTAAGESNSVTCNCGQEAVLLTVRKEGPNRGRQFFKCNGGSCNFFLWADSPNPGAGGPPALAYRPLGASLGCPPGPGIHLGGFGNPGDGSGSGTSCLCSQPSVTRTVQKDGPNKGRQFHTCAKPREQQCGFFQWVDENTAPGTSGAPSWTGDRGRTLESEARSKRPRASSSDMGSTAKKPRKCSLCHQPGHTRPFCPQNR [TOP3A]”, the thermal stability score was found to be 1.18 with HeLa Kyoto [1] (setting [5]) and 1.85 with HeLa Kyoto [1] (cell cycle stage: mitosis). The melting temperature was 46.9 °C with HeLa Kyoto [2] (cell cycle stage: G1/S) and 48.4 °C in the data set on HeLa Kyoto [2] (cell cycle stage: mitosis). Also, in the data set with HeLa Kyoto [3], the “solubility change mitosis (log2)” value is 0.0865. Also, the “solubility in G1/S (log2)” value with HeLa Kyoto [4] is -0.336.

In the case of RPIA, the values for the thermal stability score in the data set on HeLa Kyoto [1] (setting [5]) and in the data set with HeLa Kyoto [1] (cell cycle stage: mitosis) were -0.283 and -2.14, respectively. Moreover, the melting temperature turned out to be 56.4 °C in the data set on HeLa Kyoto [2] (cell cycle stage: G1/S) and 55.2 °C in the data set with HeLa Kyoto [2] (cell cycle stage: mitosis). Besides, the “solubility change mitosis (log2)” value in the data set with HeLa Kyoto [3] is -0.157. In the data set with HeLa Kyoto [4], the “solubility in G1/S (log2)” value turned out to be 0.208.

On to “MAEKFDCHYCRDPLQGKKYVQKDGHHCCLKCFDKFCANTCVECRKPIGADSKEVHYKNRFWHDTCFRCAKCLHPLANETFVAKDNKILCNKCTTREDSPKCKGCFKAIVAGDQNVEYKGTVWHKDCFTCSNCKQVIGTGSFFPKGEDFYCVTCHETKFAKHCVKCNKAITSGGITYQDQPWHADCFVCVTCSKKLAGQRFTAVEDQYYCVDCYKNFVAKKCAGCKNPITGKRTVSRVSHPVSKARKPPVCHGKRLPLTLFPSANLRGRHPGGERTCPSWVVVLYRKNRSLAAPRGPGLVKAPVWWPMKDNPGTTTASTAKNAP [FHL1]”, for which the values for the thermal stability score in the data set with HeLa Kyoto [1] (setting [5]) and with HeLa Kyoto [1] (cell cycle stage: mitosis) were 0.0455 and -3.17, respectively. In addition, the melting temperature amounted to 56.4 °C in the data set on HeLa Kyoto [2] (cell cycle stage: G1/S) and 58.5 °C in the data set with HeLa Kyoto [2] (cell cycle stage: mitosis). Besides, in the data set on HeLa Kyoto [3], the “solubility change mitosis (log2)” value is -0.0498. Besides, in the data set with HeLa Kyoto [4], the “solubility in G1/S (log2)” value is -0.37.

For the substance “MTCWLRGVTATFGRPAEWPGYLSHLCGRSAAMDLGPMRKSYRGDREAFEETHLTSLDPVKQFAAWFEEAVQCPDIGEANAMCLATCTRDGKPSARMLLLKGFGKDGFRFFTNFESRKGKELDSNPFASLVFYWEPLNRQVRVEGPVKKLPEEEAECYFHSRPKSSQIGAVVSHQSSVIPDREYLRKKNEELEQLYQDQEVPKPKSWGGYVLYPQVMEFWQGQTNRLHDRIVFRRGLPTGDSPLGPMTHRGEEDWLYERLAP [PNPO]”, the thermal stability score is -1.68 in the data set on HeLa Kyoto [1] (setting [5]) and -1.82 in the data set with HeLa Kyoto [1] (cell cycle stage: mitosis). The melting temperature was 53.5 °C with HeLa Kyoto [2] (cell cycle stage: G1/S) and 54.3 °C in the data set on HeLa Kyoto [2] (cell cycle stage: mitosis). Also, the “solubility change mitosis (log2)” value with HeLa Kyoto [3] was -0.0358. The “solubility in G1/S (log2)” value in the data set with HeLa Kyoto [4] was 0.682.
